Measurements as given in article PMC11257983 (2024).

B1: Flag-CNK^2–549 [Drosophila] / GST-HYP [Drosophila] (parent complex)
chain 1: AYINIAEWTPDQVTDWIKGLDESMKGYLYEFSKQEIGGRALLNIRPYELENLGMLRIGHQEIVLEAVENLRNFHYHLKNDNLQFMALHVATAAKNLHRELARNHAESTKIDTRILHDITRTIATLKPLVGSLERTPFRKQEMYREYCGNVLKCGLELATIAHRDRFALQPVPAIRQSAERLENLANFVIQDISDPMVLQPASLNLVTLKKRESELGFNIESSYNGIHRVTDIKYNSPAHNSGKIEDGDEIVQINYQTVVGWQHRTVLEHLREALPDVVLTVKKRPKHTKMFGQIYMQPYRLPSKKRNMAARWAAQMPSPRAAFLTLDTEQLATGGTGSAVPDPSKSLSSEKREVLTKANPVSSASDSDSSCSDIPTPTDPKLAAREIRLYYPKPRALLQRRNTICGCEYLSLKNSDLVVPSWHERKPGIGSPTNCDPGSPSIRDKSISFGYGLEMAARPTTCIGIAGDTSTDKARRMFHEARKLKQLTEDSQREFLVDRYKPGVSKVVRFDAKEDYVMKNEKFICNVENTILETFEPIPFADEGDEDA
chain 2: MGEETINSTQNKTRTKTTRPKAVYLWTVSDVLKWYRRHCGEYTQYEQLFAQHDITGRALLRITDSSLQRMGVTDNRDREAIWREIVKQRLKTDIMEIRDMERLNIY

Variants of: B1
Assay: GST pull-down, immunoblot quantification; S2 cells; GST-HYP + RRKM co-expressed; anti-Flag (CNK) blot; parent: 1
In the case of chain 1 AYINIAEWTPDQVTDWIKGLDESMKGYLYEFSKQEIGGRALLNIRPYELENLGMLRIGHQEIVLEAVENLRNFHYHLKNRNLQFMALHVATAAKNLHRELARNHAESTKIDTRILHDITRTIATLKPLVGSLERTPFRKQEMYREYCGNVLKCGLELATIAHRDRFALQPVPAIRQSAERLENLANFVIQDISDPMVLQPASLNLVTLKKRESELGFNIESSYNGIHRVTDIKYNSPAHNSGKIEDGDEIVQINYQTVVGWQHRTVLEHLREALPDVVLTVKKRPKHTKMFGQIYMQPYRLPSKKRNMAARWAAQMPSPRAAFLTLDTEQLATGGTGSAVPDPSKSLSSEKREVLTKANPVSSASDSDSSCSDIPTPTDPKLAAREIRLYYPKPRALLQRRNTICGCEYLSLKNSDLVVPSWHERKPGIGSPTNCDPGSPSIRDKSISFGYGLEMAARPTTCIGIAGDTSTDKARRMFHEARKLKQLTEDSQREFLVDRYKPGVSKVVRFDAKEDYVMKNEKFICNVENTILETFEPIPFADEGDEDA [chain 1 D80R], the ratio to parent is reported as 1.03. With chain 1 AYINIAEWTPDQVTDWIKGLDESMKGYLYEFSKQEIGGRALLNIRPYELENLGMLRIGHQEIVLEAVENLRNFHYHLKNRNLQFMALHVATAAKNLHRELARNHAESTKIDTRILHDITRTIATLKPLVGSLERTPFRKQEMYREYCGNVLKCGLELATIAHRDRFALQPVPAIRQSAERLENLANFVIQDISDPMVLQPASLNLVTLKKRESELGFNIESSYNGIHRVTDIKYNSPAHNSGKIEDGDEIVQINYQTVVGWQHRTVLEHLREALPDVVLTVDKRPKHTKMFGQIYMQPYRLPSKKRNMAARWAAQMPSPRAAFLTLDTEQLATGGTGSAVPDPSKSLSSEKREVLTKANPVSSASDSDSSCSDIPTPTDPKLAAREIRLYYPKPRALLQRRNTICGCEYLSLKNSDLVVPSWHERKPGIGSPTNCDPGSPSIRDKSISFGYGLEMAARPTTCIGIAGDTSTDKARRMFHEARKLKQLTEDSQREFLVDRYKPGVSKVVRFDAKEDYVMKNEKFICNVENTILETFEPIPFADEGDEDA [chain 1 D80R, chain 1 K282D] the ratio to parent was 0.73.

Variants of: B1
Assay: GST pull-down, immunoblot quantification; S2 cells; only Flag-CNK2–549 and GST-HYP co-expressed; anti-Flag blot; parent: 1
chain 1 AYINIAEWTPDQVTDWIKGLDESMKGYLYEFSKQEIGGRALLNIRPYELENLGMLRIGHQEIVLEAVENLRNFHYHLKNRNLQFMALHVATAAKNLHRELARNHAESTKIDTRILHDITRTIATLKPLVGSLERTPFRKQEMYREYCGNVLKCGLELATIAHRDRFALQPVPAIRQSAERLENLANFVIQDISDPMVLQPASLNLVTLKKRESELGFNIESSYNGIHRVTDIKYNSPAHNSGKIEDGDEIVQINYQTVVGWQHRTVLEHLREALPDVVLTVKKRPKHTKMFGQIYMQPYRLPSKKRNMAARWAAQMPSPRAAFLTLDTEQLATGGTGSAVPDPSKSLSSEKREVLTKANPVSSASDSDSSCSDIPTPTDPKLAAREIRLYYPKPRALLQRRNTICGCEYLSLKNSDLVVPSWHERKPGIGSPTNCDPGSPSIRDKSISFGYGLEMAARPTTCIGIAGDTSTDKARRMFHEARKLKQLTEDSQREFLVDRYKPGVSKVVRFDAKEDYVMKNEKFICNVENTILETFEPIPFADEGDEDA [chain 1 D80R] showed a ratio to parent of 0.46. Work on chain 1 AYINIAEWTPDQVTDWIKGLDESMKGYLYEFSKQEIGGRALLNIRPYELENLGMLRIGHQEIVLEAVENLRNFHYHLKNRNLQFMALHVATAAKNLHRELARNHAESTKIDTRILHDITRTIATLKPLVGSLERTPFRKQEMYREYCGNVLKCGLELATIAHRDRFALQPVPAIRQSAERLENLANFVIQDISDPMVLQPASLNLVTLKKRESELGFNIESSYNGIHRVTDIKYNSPAHNSGKIEDGDEIVQINYQTVVGWQHRTVLEHLREALPDVVLTVDKRPKHTKMFGQIYMQPYRLPSKKRNMAARWAAQMPSPRAAFLTLDTEQLATGGTGSAVPDPSKSLSSEKREVLTKANPVSSASDSDSSCSDIPTPTDPKLAAREIRLYYPKPRALLQRRNTICGCEYLSLKNSDLVVPSWHERKPGIGSPTNCDPGSPSIRDKSISFGYGLEMAARPTTCIGIAGDTSTDKARRMFHEARKLKQLTEDSQREFLVDRYKPGVSKVVRFDAKEDYVMKNEKFICNVENTILETFEPIPFADEGDEDA [chain 1 D80R, chain 1 K282D] yielded a ratio to parent of 1.03.

Variants of: B1
Assay: GST pull-down, immunoblot quantification; S2 cells; GST-HYP + RRKM co-expressed; anti-Flag (CNK) blot; parent: 1
Remark: another data set of the same source
Variant chain 1 AYINIAEWTPDQVTDWIKGLDESMKGYLYEFSKQEIGGRALLNIRPYELENLGMLRIGHQEIVLEFVENLRNRHYHLKNDNLQFMALHVATAAKNLHRELARNHAESTKIDTRILHDITRTIATLKPLVGSLERTPFRKQEMYREYCGNVLKCGLELATIAHRDRFALQPVPAIRQSAERLENLANFVIQDISDPMVLQPASLNLVTLKKRESELGFNIESSYNGIHRVTDIKYNSPAHNSGKIEDGDEIVQINYQTVVGWQHRTVLEHLREALPDVVLTVKKRPKHTKMFGQIYMQPYRLPSKKRNMAARWAAQMPSPRAAFLTLDTEQLATGGTGSAVPDPSKSLSSEKREVLTKANPVSSASDSDSSCSDIPTPTDPKLAAREIRLYYPKPRALLQRRNTICGCEYLSLKNSDLVVPSWHERKPGIGSPTNCDPGSPSIRDKSISFGYGLEMAARPTTCIGIAGDTSTDKARRMFHEARKLKQLTEDSQREFLVDRYKPGVSKVVRFDAKEDYVMKNEKFICNVENTILETFEPIPFADEGDEDA [chain 1 A66F, chain 1 F73R] has a ratio to parent of 0.58.

Variants of: B1
Assay: GST pull-down, immunoblot quantification; S2 cells; only Flag-CNK2–549 and GST-HYP co-expressed; anti-Flag blot; parent: 1
Remark: another data set of the same source
chain 1 AYINIAEWTPDQVTDWIKGLDESMKGYLYEFSKQEIGGRALLNIRPYELENLGMLRIGHQEIVLEFVENLRNRHYHLKNDNLQFMALHVATAAKNLHRELARNHAESTKIDTRILHDITRTIATLKPLVGSLERTPFRKQEMYREYCGNVLKCGLELATIAHRDRFALQPVPAIRQSAERLENLANFVIQDISDPMVLQPASLNLVTLKKRESELGFNIESSYNGIHRVTDIKYNSPAHNSGKIEDGDEIVQINYQTVVGWQHRTVLEHLREALPDVVLTVKKRPKHTKMFGQIYMQPYRLPSKKRNMAARWAAQMPSPRAAFLTLDTEQLATGGTGSAVPDPSKSLSSEKREVLTKANPVSSASDSDSSCSDIPTPTDPKLAAREIRLYYPKPRALLQRRNTICGCEYLSLKNSDLVVPSWHERKPGIGSPTNCDPGSPSIRDKSISFGYGLEMAARPTTCIGIAGDTSTDKARRMFHEARKLKQLTEDSQREFLVDRYKPGVSKVVRFDAKEDYVMKNEKFICNVENTILETFEPIPFADEGDEDA [chain 1 A66F, chain 1 F73R] gave a ratio to parent of 0.12.
